# How the values were obtained:
# [1] = molecular target: T1, PfACT1 with PfPFN (P. falciparum actin-1/profilin) (Plasmodium falciparum, UniProt Q8I2J4+Q8I4X0); experiment: actin cosedimentation by ultracentrifugation, SDS-PAGE densitometry; format: biochemical; details: 4 uM PfACT1, 16 uM PfPFN, 25 uM compound, 50 mM KCl, 4 mM MgCl2, 1 mM EGTA, 0.5 mM ATP, 2.5% DMSO, pH 7.5, about 22 C, 16 h, binding site not located
# T1 construct: gene ACT1; PfACT1 from S. frugiperda Sf21 cells (baculovirus)
# Text: actin cosedimentation by ultracentrifugation, SDS-PAGE densitometry on PfACT1 with PfPFN (P. falciparum actin-1/profilin) | S-W827, decreased the amount of actin in the pellet further to | All MMV291 analogues, S-MMV291, R-MMV291, S-W936, R-W936, S-W414, and S-W827, decreased the amount of actin
# [2] = molecular target: Plasmodium falciparum actin-1 (P. falciparum) (UniProt Q8I4X0)
# Sequence of Plasmodium falciparum actin-1 (P. falciparum) (Q8I4X0 whole entry): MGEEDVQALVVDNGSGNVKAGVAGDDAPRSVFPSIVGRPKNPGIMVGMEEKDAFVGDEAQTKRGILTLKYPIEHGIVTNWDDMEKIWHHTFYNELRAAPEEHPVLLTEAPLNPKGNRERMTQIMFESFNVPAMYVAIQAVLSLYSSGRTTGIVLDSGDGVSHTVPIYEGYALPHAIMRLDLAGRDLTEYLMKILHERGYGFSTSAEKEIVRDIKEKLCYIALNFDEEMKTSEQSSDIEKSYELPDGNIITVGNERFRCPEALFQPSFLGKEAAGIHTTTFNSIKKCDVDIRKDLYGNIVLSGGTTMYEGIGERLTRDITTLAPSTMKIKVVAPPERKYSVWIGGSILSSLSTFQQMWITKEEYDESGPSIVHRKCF
# T1 sequence (Q8I4X0 whole entry, one chain of several): as the sequence (Q8I4X0 whole entry) above
Molecule,% PfACT1 in pellet at 25 uM [1],"relative amount of PfACT1 (4 uM) in the pellet fraction of the sedimentation assay under polymerizing conditions with PfPFN (16 uM), DMSO [2]",relative amount of PfACT1 (4 uM) in the pellet fraction of the sedimentation assay with PfPFN (16 uM) and R-MMV291 (25 uM) [2],relative amount of PfACT1 (4 uM) in the pellet fraction of the sedimentation assay with PfPFN (16 uM) and R-W936 (25 uM) [2],relative amount of PfACT1 (4 uM) in the pellet fraction of the sedimentation assay with PfPFN (16 uM) and S-MMV291 (25 uM) [2],relative amount of PfACT1 (4 uM) in the pellet fraction of the sedimentation assay with PfPFN (16 uM) and S-W414 (25 uM) [2],relative amount of PfACT1 (4 uM) in the pellet fraction of the sedimentation assay with PfPFN (16 uM) and S-W827 (25 uM) [2],relative amount of PfACT1 (4 uM) in the pellet fraction of the sedimentation assay with PfPFN (16 uM) and S-W936 (25 uM) [2]
CC(C(=O)N1CCCC1)N1CCN(S(=O)(=O)c2ccc(C(C)(C)C)cc2)CC1 (racemic) [S-MMV291],11 ± 1%,–,–,–,–,–,–,–
CC(C(=O)N1CCCC1)N1CCN(S(=O)(=O)c2ccc(C(C)(C)C)cc2)CC1 (racemic) [R-MMV291],15 ± 2%,–,–,–,–,–,–,–
Plasmodium falciparum profilin (natural protein) MAEEYSWDSYLNDRLLATNQVSGAGLASEEDGVVYACVAQGEESDPNFDKWSLFYKEDYDIEVEDENGTKTTKTINEGQTILVVFNEGYAPDGVWLGGTKYQFINIERDLEFEGYNFDVATCAKLKGGLHLVKVPGGNILVVLYDEEKEQDRGNSKIAALTFAKELAESSQ,–,21%,15%,10%,11%,9%,5%,8%
